Data taken from the supplement of paper PMC9732359.
± gives the uncertainty stated by the source.

Experiment: protein stability index of a GFP-peptide fusion (yeast GPS) (PSI 1-4); higher = more stable; sorted into four equal gates, so the index is relative within each strain
Procedure, shortened: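 Tiled 17-residue yeast protein peptides were fused downstream of GFP in a plasmid that also expresses Cherry, and the pooled library was carried in yeast. Mid-log cultures in leucine-free medium were sorted into four equal gates by GFP/Cherry fluorescence ratio, and plasmids from each gate were PCR-amplified and Illumina-sequenced, with reads assigned to strains by barcodes. The protein stability index for each peptide was each gate's read frequency times its gate number, summed.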

Row | Sequence | protein stability index (doa10∆) | protein stability index (pdr5∆) | protein stability index (san1∆) | protein stability index (ubr1∆)
1 | LEEVEGSCTGKFGYILC [RPB7] | 2.14 ± 0.067 | 2.56 ± 0.057 | 2.1 ± 0.066 | 2.21 ± 0.046
2 | LEIALFKYRKARLEPGT [RPO31] | 3.24 ± 0.17 | 1.69 ± 0.13 | 2.37 ± 0.12 | 2.85 ± 0.09
3 | LEILIVTKDGVRKEFYE [PRE7] | 2.91 ± 0.063 | 2.54 ± 0.049 | 3.14 ± 0.043 | 2.92 ± 0.049
4 | LEIRNKICSSEMINEQK [RGR1] | 3.02 ± 0.11 | 2.91 ± 0.14 | 3.01 ± 0.15 | 2.9 ± 0.12
5 | LEKTSRILNFFDKNTKT [YMR153W/NUP53] | 2.59 ± 0.08 | 3.09 ± 0.087 | 2.75 ± 0.089 | 2.7 ± 0.052
6 | LELNLSVLHSWVQLVQI [YJL039C/NUP192] | 1.28 ± 0.074 | 1.91 ± 0.085 | 2.11 ± 0.12 | 1.93 ± 0.09
7 | LENKENGLLNEISRLKT [SMC2] | 3.31 ± 0.18 | 3.29 ± 0.079 | 3.15 ± 0.094 | 3.18 ± 0.13
8 | LESDFVTGASQFQRLAP [PRE2] | 2.88 ± 0.094 | 2.97 ± 0.11 | 3.17 ± 0.086 | 2.87 ± 0.067
9 | LESDVNIALVSKLRNNI [SRP54] | 2.31 ± 0.065 | 2.63 ± 0.056 | 2.74 ± 0.052 | 2.98 ± 0.067
10 | LEYNVALNDVYLDADVA [YML031W/NDC1] | 3.32 ± 0.13 | 3.33 ± 0.13 | 3.05 ± 0.12 | –
11 | LFAESHDVLQKLNTLSE [YML103C/NUP188] | 2.77 ± 0.067 | 3.17 ± 0.072 | 3.06 ± 0.065 | 3 ± 0.05
12 | LFDAAFYMKKDAVEGVS [RPO31] | 2.75 ± 0.24 | 2.96 ± 0.14 | 3.31 ± 0.076 | 2.65 ± 0.11
13 | LFDTYHASKAIGLPRHS [RRP6] | 2.15 ± 0.061 | 2.29 ± 0.06 | 2.34 ± 0.081 | 2.08 ± 0.071
14 | LFKKITNVNPSKNFNVI [YML103C/NUP188] | 2.63 ± 0.048 | 2.37 ± 0.038 | 2.73 ± 0.042 | 2.39 ± 0.036
15 | LFLNNFVSRIPIMFQDF [IRR1] | 1.97 ± 0.057 | 2.04 ± 0.048 | 1.7 ± 0.067 | 1.85 ± 0.033
16 | LFMKSLIENCKKRNMPL [SWI1] | 2.68 ± 0.053 | 2.72 ± 0.068 | 2.83 ± 0.045 | 2.82 ± 0.042
17 | LFNNHLNGILADEMGLG [SNF2] | 2.83 ± 0.11 | 2.64 ± 0.1 | 3.28 ± 0.068 | 2.59 ± 0.092
18 | LFQDGSASLHTRSLKYG [RRP4] | 2.48 ± 0.085 | 2.76 ± 0.088 | 2.59 ± 0.1 | 2.88 ± 0.059
19 | LFQNVPEQGEEPMKQLN [YAR002W/NUP60] | 3.62 ± 0.15 | 3.32 ± 0.16 | 3.51 ± 0.12 | 3.17 ± 0.12
20 | LFWKVKEEEGSFNNVIG [PRE2] | 3.13 ± 0.12 | 3.39 ± 0.11 | 3.21 ± 0.071 | 3.2 ± 0.11
21 | LGCTLVTLLANVRALYM [RMP1] | 1.62 ± 0.17 | 1.85 ± 0.21 | 2.74 ± 0.16 | 2.06 ± 0.073
22 | LGHPDNYIPGNPLVTPA [COB] | 2.49 ± 0.11 | 3.07 ± 0.13 | 2.93 ± 0.075 | 2.93 ± 0.068
23 | LGIKVAELTGDSRLSRK [BRR2] | – | 2.18 ± 0.19 | 2.67 ± 0.16 | –
24 | LGITGLATDVTTLNEMF [PUP3] | 2.2 ± 0.16 | 2.39 ± 0.11 | 2.24 ± 0.16 | 2.27 ± 0.11
25 | LGLCLVIQIVTGIFMAM [COB] | 1.36 ± 0.053 | 1.2 ± 0.045 | 1.23 ± 0.13 | 1.42 ± 0.045
26 | LGLKLACLGNDGILRLY [YGL100W/SEH1] | 1.78 ± 0.056 | 1.75 ± 0.05 | 1.86 ± 0.057 | 1.72 ± 0.034
